The values that follow are results of earlier work, collected in article PMC5290461.

The target in the data set is integrin beta1A cytoplasmic tail (Homo sapiens) (UniProt P05556). Nature of the data set: NMR.
Chain of UniProt P05556 (P05556 752-798): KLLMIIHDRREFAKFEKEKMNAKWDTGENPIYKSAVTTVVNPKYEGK

In general, Kd refers to the free concentration of one partner at which half of the binding sites on the other are occupied at equilibrium, for simple one-to-one binding. Regarding talin2 F3 (from UniProt Q71LX4), the Kd is 652 µM.
For the substance talin1 F3 (from UniProt P26039), the Kd was 491 µM.
